According to paper PMC8704484:

How the values were obtained:
BLM-core helicase [1] = target: T1, BLM-core helicase (human, UniProt P54132 642-1290); assay: fluorescence anisotropy
RecQ helicase [2] = target: T2, RecQ helicase (E. coli, UniProt P15043 1-609); assay: smFRET
DHX36 [3] = target: T3, DHX36 (Bos, UniProt Q05B79 1-1010); assay: smFRET
T3 sequence: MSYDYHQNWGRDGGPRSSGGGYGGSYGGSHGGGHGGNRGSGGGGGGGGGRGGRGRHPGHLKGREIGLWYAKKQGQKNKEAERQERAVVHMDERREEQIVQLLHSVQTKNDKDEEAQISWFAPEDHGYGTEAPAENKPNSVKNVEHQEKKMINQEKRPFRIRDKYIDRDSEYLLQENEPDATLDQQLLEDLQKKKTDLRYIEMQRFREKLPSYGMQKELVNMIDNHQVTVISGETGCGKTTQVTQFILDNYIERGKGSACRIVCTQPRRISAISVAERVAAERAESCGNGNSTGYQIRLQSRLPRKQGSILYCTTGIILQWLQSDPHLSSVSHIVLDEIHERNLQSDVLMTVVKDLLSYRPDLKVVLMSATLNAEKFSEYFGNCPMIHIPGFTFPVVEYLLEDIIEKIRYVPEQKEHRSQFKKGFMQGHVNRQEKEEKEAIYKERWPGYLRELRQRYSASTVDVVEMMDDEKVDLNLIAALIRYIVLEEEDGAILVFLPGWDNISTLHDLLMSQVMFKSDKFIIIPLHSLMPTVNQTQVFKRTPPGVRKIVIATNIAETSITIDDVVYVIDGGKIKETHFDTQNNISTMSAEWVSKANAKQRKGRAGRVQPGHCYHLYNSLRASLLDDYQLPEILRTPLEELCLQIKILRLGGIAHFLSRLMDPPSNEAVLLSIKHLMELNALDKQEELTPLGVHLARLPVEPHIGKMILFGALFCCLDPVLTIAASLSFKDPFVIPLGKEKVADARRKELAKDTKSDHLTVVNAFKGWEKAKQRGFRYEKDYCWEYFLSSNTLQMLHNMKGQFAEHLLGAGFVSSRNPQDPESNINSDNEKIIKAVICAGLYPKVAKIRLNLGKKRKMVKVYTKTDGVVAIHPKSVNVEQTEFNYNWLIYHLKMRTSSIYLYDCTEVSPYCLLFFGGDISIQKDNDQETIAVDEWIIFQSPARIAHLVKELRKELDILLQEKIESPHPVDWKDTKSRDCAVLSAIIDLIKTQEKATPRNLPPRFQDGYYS

BLM-core helicase [4] = target: T1, BLM-core helicase; assay: smFRET
Rep helicase [5] = target: T4, Rep helicase (E. coli, UniProt P09980 1-673); assay: smFRET
T4 sequence (P09980 whole entry): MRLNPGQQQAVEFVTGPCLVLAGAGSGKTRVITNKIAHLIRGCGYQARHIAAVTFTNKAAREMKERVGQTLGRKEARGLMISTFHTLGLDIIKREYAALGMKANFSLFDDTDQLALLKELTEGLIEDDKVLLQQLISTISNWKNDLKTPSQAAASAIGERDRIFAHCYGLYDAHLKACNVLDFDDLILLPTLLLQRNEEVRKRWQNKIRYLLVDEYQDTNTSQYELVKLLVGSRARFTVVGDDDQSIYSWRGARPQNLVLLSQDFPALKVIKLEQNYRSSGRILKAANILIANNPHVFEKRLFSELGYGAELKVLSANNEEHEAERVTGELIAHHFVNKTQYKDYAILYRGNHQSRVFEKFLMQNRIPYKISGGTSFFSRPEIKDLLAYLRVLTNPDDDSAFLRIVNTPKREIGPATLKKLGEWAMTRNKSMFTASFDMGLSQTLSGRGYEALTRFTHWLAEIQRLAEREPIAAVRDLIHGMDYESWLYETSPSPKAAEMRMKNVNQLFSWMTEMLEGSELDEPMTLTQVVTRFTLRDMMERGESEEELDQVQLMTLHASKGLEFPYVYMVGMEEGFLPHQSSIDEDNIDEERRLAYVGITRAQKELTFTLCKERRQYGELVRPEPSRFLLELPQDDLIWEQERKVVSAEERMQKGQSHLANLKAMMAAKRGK

[6] = target: RPA (RPA1-RPA2-RPA3 heterotrimer) (human, UniProt P27694;P15927;P35244 1-616;1-270;1-121); assay: smFRET
Sequence of RPA (RPA1-RPA2-RPA3 heterotrimer) (P27694 whole entry, chain 1 of 3): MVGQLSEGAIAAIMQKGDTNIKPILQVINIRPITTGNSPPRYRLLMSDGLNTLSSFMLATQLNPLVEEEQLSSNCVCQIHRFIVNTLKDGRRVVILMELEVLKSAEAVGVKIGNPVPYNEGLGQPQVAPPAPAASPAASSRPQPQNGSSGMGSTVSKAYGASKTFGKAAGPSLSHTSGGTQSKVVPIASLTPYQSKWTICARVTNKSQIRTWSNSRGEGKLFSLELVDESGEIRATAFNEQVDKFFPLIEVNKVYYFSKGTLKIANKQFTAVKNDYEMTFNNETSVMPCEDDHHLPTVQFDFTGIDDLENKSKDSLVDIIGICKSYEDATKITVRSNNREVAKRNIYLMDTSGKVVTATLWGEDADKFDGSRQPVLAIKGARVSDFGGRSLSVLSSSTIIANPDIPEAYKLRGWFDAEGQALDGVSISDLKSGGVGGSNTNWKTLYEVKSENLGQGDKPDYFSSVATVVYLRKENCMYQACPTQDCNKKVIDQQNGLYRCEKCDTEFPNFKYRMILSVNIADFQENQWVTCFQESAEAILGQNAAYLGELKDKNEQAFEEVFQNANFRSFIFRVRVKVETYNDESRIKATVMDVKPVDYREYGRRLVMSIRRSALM
Sequence of RPA (RPA1-RPA2-RPA3 heterotrimer) (P15927 whole entry, chain 2 of 3): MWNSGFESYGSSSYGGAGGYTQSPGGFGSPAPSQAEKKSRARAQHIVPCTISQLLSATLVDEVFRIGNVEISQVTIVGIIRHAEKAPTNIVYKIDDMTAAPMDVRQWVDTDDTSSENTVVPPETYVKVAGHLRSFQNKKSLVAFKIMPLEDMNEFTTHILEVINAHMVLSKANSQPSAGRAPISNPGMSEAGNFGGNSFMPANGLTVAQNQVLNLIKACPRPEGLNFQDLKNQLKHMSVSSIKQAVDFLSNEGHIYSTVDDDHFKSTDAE
Sequence of RPA (RPA1-RPA2-RPA3 heterotrimer) (P35244 whole entry, chain 3 of 3): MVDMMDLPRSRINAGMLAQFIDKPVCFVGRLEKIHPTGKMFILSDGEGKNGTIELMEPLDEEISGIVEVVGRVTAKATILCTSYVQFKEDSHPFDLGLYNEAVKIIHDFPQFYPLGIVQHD

RecQ helicase [7] = target: T2, RecQ helicase; assay: fluorescence anisotropy
DHX36 [8] = target: T3, DHX36; assay: fluorescence anisotropy
Rep helicase [9] = target: T4, Rep helicase; assay: fluorescence anisotropy

T1 sequence (P54132 642-1290): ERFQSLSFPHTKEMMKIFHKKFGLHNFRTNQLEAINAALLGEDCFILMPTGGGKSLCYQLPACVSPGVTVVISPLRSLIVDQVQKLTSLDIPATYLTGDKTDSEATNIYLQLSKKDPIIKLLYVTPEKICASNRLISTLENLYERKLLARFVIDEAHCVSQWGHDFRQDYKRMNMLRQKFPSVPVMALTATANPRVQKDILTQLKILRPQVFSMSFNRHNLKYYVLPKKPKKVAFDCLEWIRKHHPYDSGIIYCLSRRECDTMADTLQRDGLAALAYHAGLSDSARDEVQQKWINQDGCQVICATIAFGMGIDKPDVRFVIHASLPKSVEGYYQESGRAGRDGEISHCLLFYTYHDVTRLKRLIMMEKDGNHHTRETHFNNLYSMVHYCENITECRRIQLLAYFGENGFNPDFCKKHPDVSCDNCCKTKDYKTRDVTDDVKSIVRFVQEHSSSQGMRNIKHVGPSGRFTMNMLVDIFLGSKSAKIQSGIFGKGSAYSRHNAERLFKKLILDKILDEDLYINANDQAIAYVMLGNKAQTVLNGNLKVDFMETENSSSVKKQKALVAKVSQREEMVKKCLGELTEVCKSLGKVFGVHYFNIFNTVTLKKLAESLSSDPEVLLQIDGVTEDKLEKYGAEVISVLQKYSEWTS
T2 sequence (P15043 whole entry): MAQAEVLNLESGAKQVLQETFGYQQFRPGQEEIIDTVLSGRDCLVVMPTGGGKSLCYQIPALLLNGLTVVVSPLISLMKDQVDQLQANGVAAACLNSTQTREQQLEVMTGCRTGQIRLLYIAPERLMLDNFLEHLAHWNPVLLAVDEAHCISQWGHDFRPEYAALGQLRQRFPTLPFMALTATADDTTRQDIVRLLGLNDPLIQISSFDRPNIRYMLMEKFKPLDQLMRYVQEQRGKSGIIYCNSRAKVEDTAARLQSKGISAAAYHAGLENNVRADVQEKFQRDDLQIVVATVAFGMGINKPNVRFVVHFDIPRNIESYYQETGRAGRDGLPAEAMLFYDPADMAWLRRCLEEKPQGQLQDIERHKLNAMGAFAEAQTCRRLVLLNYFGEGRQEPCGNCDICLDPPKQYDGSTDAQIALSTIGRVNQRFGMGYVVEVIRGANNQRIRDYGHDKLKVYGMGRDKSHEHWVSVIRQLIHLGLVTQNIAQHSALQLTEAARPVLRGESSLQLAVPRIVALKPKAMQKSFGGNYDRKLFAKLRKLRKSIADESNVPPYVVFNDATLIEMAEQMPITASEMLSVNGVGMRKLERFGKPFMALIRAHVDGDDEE

With GGGCGCGGGAGGAAGGGGGCGGG (structured_DNA) [F-Bcl2-G4] the Kd (BLM-core helicase [1]) was 97.7 nM.

B1: d27Bcl2-IM / Stem (no loading tail) (mixed)
DNA 1: GCGTGGCACCGGTAATAGGAAATAGGATTCCCGCCCCCTTCCTCCCGCGCCCT
DNA 2: TCCTATTTCCTATTACCGGTGCCACGC
B1: binds (RecQ helicase [2]); binds (DHX36 [3]); binds (BLM-core helicase [4]). B1: binds (Rep helicase [5]).

B2: Duplex (24nt-F/24nt) (dsDNA)
DNA 1: GCCCTGGTGCCGACCAACGAAGGT
DNA 2: ACCTTCGTTGGTCGGCACCAGGGC
B2: no binding (BLM-core helicase [1]).

B3: d27Bcl2-Mut / Stem (mixed)
DNA 1: GCGTGGCACCGGTAATAGGAAATAGGATTCTCTCTCTCTTCCTCTCTCGCTC
DNA 2: TCCTATTTCCTATTACCGGTGCCACGC
B3: binds [6].

With CCCGCCCCCTTCCTCCCGCGCCC (structured_DNA) [F-Bcl2-IM] the Kd (BLM-core helicase [1]) was 22 nM, the binding result (RecQ helicase [7]) was “binds” and the binding result (DHX36 [8]) was “binds”. CCCGCCCCCTTCCTCCCGCGCCC (structured_DNA) [F-Bcl2-IM]: binds (Rep helicase [9]).
